Biological target: T1, polyUb-E6AP (resin-bound E6AP autoubiquitinated with K48-linked polyubiquitin chains) (UniProt Q05086 1-875; P0CG48 1-76, K48-linked polyubiquitin chains of undefined length attached by autoubiquitination; sites not stated | ubiquitins joined to each other by K48 isopeptide linkages and to E6AP; chain length undefined)
T1 construct: HECT E3 ligase E6AP; ubiquitin, the mature 76-residue protein, wild type; Covalent conjugate held on resin; also called K48-polyUb conjugates; polyubiquitinated E6AP; source: E3 enzyme expressed in E. coli and purified
Test: pull-down; resin-bound polyUb-E6AP and polyUb-Ube2SΔ incubated with 100 nM purified Rpn10-UIM, hHR23A or hHR23B for 30 min at 4°C, washed; bound proteins by immunoblot for His (Rpn10) or hHR23A/B
Settings: both partners purified

B1: recombinant Ub-interacting motif (UIM) of Rpn10 (domain or fragment)
chain: MLGLGASDFEFGVDPSADPELALALRVSMEEQRQRQEEEARRAAAASAAEAGIATTGTEDSDDALLKMTISQQEFGRTGLPDLSSMTEEEQIAYAMQMSLQGAEFGQAESA
fold binding relative to K11 chains (polyUb-Ube2SΔ), ImageJ quantification: ~4 fold
